B1: G1 LC 3J: anti-PMEL antibody G1 with 3J light chain (antibody, V domains shown)
VH: QVQLVQSGAEVKKPGSSVKVSCKASGGTFSDYAITWVRQAPGQGLEWMGGIIPIFGTANYAQKFQGRVTITADESTSTAYMELSSLRSEDTAVYYCAREGGLLTDISYSRYWFAYWGQGTLVTVSS
VL: SYELTQPLSVSVALGQTARITCSGDALRDKFVYWYQQKPGQAPVLVIYDDNNRPSGIPERFSGSNSGNTATLTISRAQAGDEADYYCQSWDHSYSLVVFGGGTKLTVL
B2: Y010417: anti-PMEL17 antibody (IgG) (antibody, V domains shown)
VH: EVQLVQSGAEVKKPGESLKISCKGSGYSFTSYWIGWVRQMPGKGLEWMGIIYPGDSDTRYSPSFQGQVTISADKSISTAYLQWSSLKASDTAMYYCARGSSAASGLSGDLWGQGTLVTVSS
VL: DIQMTQSPSSLSASVGDRVTITCRASQSISSYLNWYQQKPGKAPKLLIYAASSLQSGVPSRFSGSGSGTDFTLTISSLQPEDFATYYCQQDYYSPFTFGQGTKVEIK

Tests used:
human PMEL = target: T1, human PMEL (Homo sapiens, UniProt P40967); experiment: SPR epitope binning (competitive binding assay, Biacore T200); conditions: FIG. 20B-20C
T1 sequence (P40967 25-661): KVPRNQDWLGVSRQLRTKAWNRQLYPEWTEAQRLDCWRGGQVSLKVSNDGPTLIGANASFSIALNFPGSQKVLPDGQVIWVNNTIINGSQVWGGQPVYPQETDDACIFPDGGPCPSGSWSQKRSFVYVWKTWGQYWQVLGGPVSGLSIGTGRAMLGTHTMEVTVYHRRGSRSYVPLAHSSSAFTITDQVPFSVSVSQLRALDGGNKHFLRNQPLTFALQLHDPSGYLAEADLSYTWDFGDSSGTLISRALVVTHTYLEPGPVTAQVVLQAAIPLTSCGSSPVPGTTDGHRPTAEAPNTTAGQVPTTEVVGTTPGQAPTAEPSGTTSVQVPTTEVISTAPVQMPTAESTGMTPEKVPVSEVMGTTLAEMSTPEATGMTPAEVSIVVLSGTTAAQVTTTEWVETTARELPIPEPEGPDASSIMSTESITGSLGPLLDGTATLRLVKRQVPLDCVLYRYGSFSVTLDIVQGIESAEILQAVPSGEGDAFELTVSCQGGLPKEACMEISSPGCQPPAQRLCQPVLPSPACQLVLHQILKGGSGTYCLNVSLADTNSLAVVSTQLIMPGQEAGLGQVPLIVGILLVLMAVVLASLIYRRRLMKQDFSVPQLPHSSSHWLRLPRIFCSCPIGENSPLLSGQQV
From the text: SPR was used to assess epitope binning for anti-PMEL antibodies on a T200 Biacore instrument (catalog #28975001, GE Healthcare Life Sciences).
Surface Plasmon Resonance (SPR) is a technique to measure bimolecular interactions in real-time in a label free environment. Molecules are immobilized on a sensor surface over which a sample solution flows. The interaction between the immobilized molecule and the flowing sample causes a refractive index change. The refractive index change is an altering of the angle at which reduced intensity polarized light is reflected from the supporting glass plane. This angle change is caused by binding or dissociation of molecules from the sensor surface and is proportional to the mass of bound material and is recorded by the instrument in a sensorgram. […] From the association and dissociation event responses, an association rate (ka), a dissociation rate (kd) and an overall affinity (KD) are determined. For epitope binning, KDs are not determined.
In the first step, G1 LC 3J and 17A9 antibodies were directly immobilized onto a CM5 chip surface via Amine Coupling to achieve approximately 2000RU respectively on Fc2 and Fc3. […] The immobilized antibodies on Fc2 and Fc3 are the base antibodies in the experiment […]
The data was analyzed using the Biacore T200 Evaluation Software version 3.0.

PMEL17 = experiment: Cross-reactivity (cross-specificity profile) of anti-PMEL17 IgGs in dose response FACS; type: binding; set-up: key: h/c/r/m: human/cyno/rat/mouse; h/c/r: human/cyno/rat; h/c/(m): human/cyno/mouse; h/c: human/cyno; conditions: h human, c cyno, r rat, m mouse
Experimental: (§1) The cross-specificity of the IgGs was evaluated in does response FACS on G-361 (human melanoma), HKB11-cyno-PMEL17, HKB11-rat PMEL17 and B16-F10 (mouse PMEL17 expressing melanoma) (Table 3). Testing on G-361 was performed using a detection antibody labelled to PE. In contrast, an Alexa-Fluor labelled detection antibody had to be used for testing the candidates on the other cell lines so as to reach detectable signals.
IgGs were classified into several epitope groups according to their cross-specificity profiles.

mouse PMEL17 = target: T2, mouse PMEL17 (Mus musculus, UniProt Q60696); experiment: Apparent affinity by FACS titration of IgGs on B16-F10 melanoma cells; type: binding; conditions: Alexa Fluor
T2 construct: B16-F10 (mouse PMEL17 expressing melanoma); endogenous in cells; host or cells: B16-F10 (mouse melanoma)
T2 sequence (Q60696 24-626): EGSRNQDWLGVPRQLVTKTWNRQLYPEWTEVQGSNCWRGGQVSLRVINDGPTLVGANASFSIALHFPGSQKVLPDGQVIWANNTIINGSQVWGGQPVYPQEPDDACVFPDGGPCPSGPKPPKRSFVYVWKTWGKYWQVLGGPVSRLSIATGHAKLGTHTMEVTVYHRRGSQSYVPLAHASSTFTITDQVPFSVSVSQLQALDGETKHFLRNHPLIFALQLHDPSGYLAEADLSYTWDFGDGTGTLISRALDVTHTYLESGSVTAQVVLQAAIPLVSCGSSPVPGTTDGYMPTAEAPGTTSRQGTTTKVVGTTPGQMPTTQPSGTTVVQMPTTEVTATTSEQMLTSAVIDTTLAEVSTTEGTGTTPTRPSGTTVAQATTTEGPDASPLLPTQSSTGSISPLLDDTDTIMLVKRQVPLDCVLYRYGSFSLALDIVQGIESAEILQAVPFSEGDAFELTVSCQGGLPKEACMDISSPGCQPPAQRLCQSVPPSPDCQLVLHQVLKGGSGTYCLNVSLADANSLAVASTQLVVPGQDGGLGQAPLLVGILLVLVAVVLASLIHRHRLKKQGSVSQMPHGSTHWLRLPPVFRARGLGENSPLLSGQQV
Experimental: (§2) Purified IgGs were titrated on a variety of PMEL17 expressing and PMEL17 non expressing cell lines (for control) to determine EC50 values. Cells were harvested using Accutase, adjusted to ˜4×10^6 cells/ml into FACS buffer (PBS, 3% FCS and 0.02% Na-Azide) and kept on ice to avoid internalization. 15 μl of cell suspension/well were transferred into 384 well V-bottom plates (Greiner, Cat #781280) and incubated with 15 μl of IgGs at different concentrations (most commonly from 200 to 3.5×10−3 nM) for 1 hour at 4° C., gently shaking. Following incubation, cells were washed three times with FACS buffer. After each washing step, cells were centrifuged (250×g, 5 min, 4° C.) and carefully resuspended. 15 μl of detection antibody conjugated to PE (PE-conjugated goat anti-human IgG, F(ab′)2 fragment specific, 1:150 in FACS buffer; Jackson Immuno Research, #109-116-097) or Alexa Fluor (Alexa Fluor-conjugated goat anti-human IgG, F(ab′)2 fragment specific, 1:150 in FACS buffer; Jackson Immuno Research, #109-606-097) were added and samples were incubated for 45 minutes to 1 hour on ice in the dark, gently shaking. After 3 washing steps, cells were resuspended in 30 μl of FACS buffer and samples were measured using the IntelliCyt HTFC device. EC50 values were calculated using the Graphpad Prism software. G-361 melanoma cell line expresses human PMEL17 at a lower level compared to the HKB11-human PMEL17 overexpressing cell line, and therefore allows a more precise ranking of the clones depending on their apparent affinity on cells.
as §1

rat PMEL17 = experiment: Apparent affinity by FACS titration of IgGs on HKB11-rat PMEL17 cells; type: binding; conditions: Alexa Fluor
Experimental: Purified IgGs were titrated on a variety of PMEL17 expressing and PMEL17 non expressing cell lines (for control) to determine EC50 values. Cells were harvested using Accutase, adjusted to ˜4×10^6 cells/ml into FACS buffer (PBS, 3% FCS and 0.02% Na-Azide) and kept on ice to avoid internalization. 15 μl of cell suspension/well were transferred into 384 well V-bottom plates (Greiner, Cat #781280) and incubated with 15 μl of IgGs at different concentrations (most commonly from 200 to 3.5×10−3 nM) for 1 hour at 4° C., gently shaking. Following incubation, cells were washed three times with FACS buffer. After each washing step, cells were centrifuged (250×g, 5 min, 4° C.) and carefully resuspended. […] After 3 washing steps, cells were resuspended in 30 μl of FACS buffer and samples were measured using the IntelliCyt HTFC device. EC50 values were calculated using the Graphpad Prism software. […]
(§3) The cross-specificity of the IgGs was evaluated in does response FACS on G-361 (human melanoma), HKB11-cyno-PMEL17, HKB11-rat PMEL17 and B16-F10 (mouse PMEL17 expressing melanoma) (Table 3). […]

UACC-62 = experiment: FACS titration of IgGs on UACC-62 cells; type: binding; conditions: UACC-62, PE-labelled detection antibody
Experimental: as §2

human PMEL17 = target: T3, human PMEL17 (Homo sapiens, UniProt P40967); experiment: Apparent affinity by FACS titration of IgGs on G-361 melanoma cell line; type: binding; conditions: G-361, PE-labelled detection antibody; read-out: FACS EC50 (nM) G-361 (PE)
T3 construct: G-361 melanoma cell line expresses human PMEL17 at a lower level compared to the HKB11-human PMEL17 overexpressing cell line; endogenous in cells; host or cells: G-361 (human melanoma)
T3 sequence (P40967 25-661): T1 sequence (P40967 25-661)
Experimental: as §2, §3

Molecule | epitope binning (human PMEL) | Cross spe profile (based on C14 detection ab) (PMEL17) | EC50 (mouse PMEL17) [nM] | EC50 (rat PMEL17) [nM] | UACC-62 (PE) (UACC-62) | EC50 (human PMEL17) [nM]
B1 | bind to different epitopes | – | – | – | – | –
B2 | – | h/c | > 100 | > 100 | Negative | 2.8

Reference: patent US11779649B2, “Antibodies to PMEL17 and conjugates thereof” (Novartis AG, priority 2018, dated 2023)
